Reference: US9932382B2, “Kv2.1 channel-derived peptides and methods of use” (University of Pittsburgh—Of the Commonwealth System of …, priority 2014, dated 2018)

B1: C1a441-522: distal segment of C1a, residues 441-522 of rat Kv2.1 (protein, UniProt P15387 441-522, looked up, fragment)
chain: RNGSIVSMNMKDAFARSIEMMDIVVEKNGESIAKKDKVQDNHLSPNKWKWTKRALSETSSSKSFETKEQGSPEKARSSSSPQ
B2: C1a: rat Kv2.1 C1a peptide, residues 411-522 of SEQ ID NO: 3, expressed from a plasmid (protein, listed as Rattus norvegicus)
chain: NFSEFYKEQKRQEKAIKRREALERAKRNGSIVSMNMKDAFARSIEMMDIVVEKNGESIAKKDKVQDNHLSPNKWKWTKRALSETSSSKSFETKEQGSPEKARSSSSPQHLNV

How the values were obtained:
Kv2.1S800E = assay: Whole-cell K+ current densities in CHO cells expressing Kv2.1S800E; assay type: cell-based; conditions: CHO cells co-transfected with Kv2.1S800E and peptide plasmid
Method: For electrophysiological experiments, mixed cortical neuronal/glial cultures were prepared from embryonic day 16 (E16) Sprague-Dawley rats (Charles River Laboratories, Wilmington, Mass., USA). Donor rats were euthanized by gradual CO2 exposure. Cortices were dissociated with trypsin, and the resultant cell suspension, adjusted to 670,000 cells per well, was plated on glass coverslips in 6-well plates as described previously (Hartnett et al., J Neurochem 68, 1836-1845, 1997). Non-neuronal cell proliferation was inhibited after two weeks in culture with 1-2 μM cytosine arabinoside, and cultures utilized at three to four weeks in vitro. […]
Current recordings were performed on eGFP-positive co-transfected neurons or CHO cells using the whole-cell patch clamp configuration technique as described previously (McLaughlin et al., J Neurosci 21, 3303-3311, 2001). […] To determine current density values, steady-state current amplitudes were measured 180 msec after the initiation of the +10 mV step and normalized to cell capacitance. […] By repeatedly adjusting the scaling factor k, an automated binary search algorithm determined threshold synaptic conductance (thresh-gsyn), the conductance required to reach firing threshold (Kullmann et al., J Neurophysiol 91, 542-54, 2004). […]

Kv2.1/syntaxin binding = biological target: T1, Kv2.1/syntaxin binding (Homo sapiens, UniProt Q16623); assay: Co-immunoprecipitation of Kv2.1 with syntaxin from transfected CHO cells; assay type: cell-based; conditions: for effect on Kv2.1/syntaxin binding (co-immunoprecipitation): syntaxin-expressing CHO cells co-transfected with Kv2.1 and peptide plasmid, syntaxin immunoprecipitates probed for Kv2.1
T1 construct: expressed in transfected cells; host or cells: CHO cells
T1 sequence (Q16623 whole entry): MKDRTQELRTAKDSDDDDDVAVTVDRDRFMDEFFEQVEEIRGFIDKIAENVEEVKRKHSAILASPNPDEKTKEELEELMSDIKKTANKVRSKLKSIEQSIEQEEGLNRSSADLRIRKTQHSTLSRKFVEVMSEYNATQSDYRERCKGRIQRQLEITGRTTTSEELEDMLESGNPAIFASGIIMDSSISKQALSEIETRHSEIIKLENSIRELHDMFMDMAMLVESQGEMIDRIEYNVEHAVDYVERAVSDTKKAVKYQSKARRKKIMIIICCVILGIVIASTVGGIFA
Method: For electrophysiological experiments, mixed cortical neuronal/glial cultures were prepared from embryonic day 16 (E16) Sprague-Dawley rats (Charles River Laboratories, Wilmington, Mass., USA). Donor rats were euthanized by gradual CO2 exposure. Cortices were dissociated with trypsin, and the resultant cell suspension, adjusted to 670,000 cells per well, was plated on glass coverslips in 6-well plates as described previously (Hartnett et al., J Neurochem 68, 1836-1845, 1997). Non-neuronal cell proliferation was inhibited after two weeks in culture with 1-2 μM cytosine arabinoside, and cultures utilized at three to four weeks in vitro. For neuronal transfection, cells were treated for five hours in serum-free medium with 2 μL LIPOFECTAMINE™ 2000 (Invitrogen, Carlsbad, Calif.), 50 μL Optimem (GIBCO, Grand Island, N.Y.), and 1.5 μg DNA per well. For CHO cell transfections, cells were plated on coverslips in 24-well plates at a density of 5.6×10^4 cells per well for electrophysiological measurements or in 100 mm dishes at a density of 1.7×10^6 cells per dish for biochemical studies. Cells were treated for 3-4 hours in serum-free medium with a total of 1.2 μL LIPOFECTAMINE™ and 0.28 μg DNA per well for electrophysiology, or 55.1 μL LIPOFECTAMINE™ and 7.33 μg DNA per dish for biochemistry. Following transfection, cells were maintained in F12 medium containing fetal bovine serum at 37° C., 5% CO2 for 24 hours prior to experimentation.
Protein was harvested by washing cell culture dishes with ice cold PBS followed by a short incubation with 1% 3-[(3-cholamidopropyl) dimethylammonio]-1-propanesulfonate buffer. Protein A/G agarose bead slurry (Santa Cruz, Dallas, Tex.) was added to the samples and rocked at 4° C. for 1 hour in order to pre-clear non-specific protein binding. Samples were then incubated overnight at 4° C. with the appropriate immunoprecipitating antibodies. Following another incubation with the bead slurry, the protein samples were prepared/denatured by the addition of sample preparation buffer (625 mM Tris, 25% glycerol, 2% sodium dodecyl sulfate (SDS), 0.01% bromophenol blue and 5% β-mercaptoethanol) and heated at 95° C. for 5 min prior to SDS polyacrylamide gel electrophoresis and immunoblotting.
Protein samples from equal amounts of cell lysate were separated on 10% sodium dodecyl sulfate SDS polyacrylamide gels by electrophoresis using the Mini Protean 3 System (Bio-Rad, Hercules, Calif.). Separated protein bands were transferred onto 0.2 μm nitrocellulose membranes (Bio-Rad), blocked with 1% bovine serum albumin (BSA) in PBS with 0.05% Tween 20 (PBST) at room temperature for 1 hour, and probed with appropriate primary antibodies diluted in PBST. Blots were then incubated with infrared fluorescent goat secondary antibodies at room temperature for 1 hour, visualized using the Odyssey Imaging System (LI-COR Biosciences, Lincoln, Nebr.), and quantified using infrared fluorimetry.
After establishing that C1a effectively precluded the oxidant-induced K^+ current increase in neurons, studies were performed to identify the sub-domains within C1a that could retain the ability to disrupt Kv2.1/syntaxin binding. C1a was divided into overlapping proximal and distal segments, hereafter referred to as C1a411-472 and C1a441-522, respectively. Co-immunoprecipitation experiments were performed to compare the ability of C1a and the smaller segments to displace Kv2.1 from syntaxin. Syntaxin immunoprecipitates of protein samples obtained from CHO cells transfected with a syntaxin-expressing plasmid, and co-transfected with Kv2.1 together with C1a, C1a411-472, or C1a441-522, were probed for Kv2.1.

| Molecule | effect on enhanced K+ currents of Kv2.1S800E (Kv2.1S800E) | ability to displace Kv2.1 from syntaxin with Src kinase overexpression (Kv2.1/syntaxin binding; CHO cells co-transfected with Kv2.1 and Src) | effect on Kv2.1/syntaxin binding (co-immunoprecipitation) (Kv2.1/syntaxin binding) |
| --- | --- | --- | --- |
| B1 | blocked the increase in currents | retained the ability to displace Kv2.1 from syntaxin | inhibited Kv2.1/syntaxin binding |
| B2 | suppressed the enhanced K^+ currents | – | inhibited Kv2.1/syntaxin binding |
